Literature values as cited in patent US20230090114A1, “METHODS FOR PROMOTING WEIGHT LOSS” (89BIO LTD., priority 2020, published 2023).

Details: in vivo; cited from earlier work

B1: recombinant human FGF-21: recombinant human FGF-21 (SEQ ID NO: 1 is native human FGF-21) (protein, listed as Homo sapiens)
chain: MHPIPDSSPLLQFGGQVRQRYLYTDDAQQTEAHLEIREDGTVGGAADQSPESLLQLKALKPGVIQILGVKTSRFLCQRPDGALYGSLHFDPEACSFRELLLEDGYNVYQSEAHGLPLHLPGNKSPHRDPAPRGPARFLPLPGLPPALPEPPGILAPQPPDVGSSDPLSMVGPSQGRSPSYAS
In the case of B1, the half-life is listed as 1 to 2 h.
